This assay has as its target IgG agarose beads (Sigma). Kind of assay: pull-down with IgG agarose beads; recovered HS^act conversion activity.

For the substance “Protein A tagged mouse r3-OST-1 (from UniProt O35310 27-311)”, the HS^act conversion activity extracted amounted to 7000 units and the recovery of initial HS^act conversion activity was 10%.

(Values after patent publication US6861254.)
